Consider six molecules from paper PMC3548785, “Identification of a Binding Site for ASF/SF2 on an RNA Fragment Derived from the Hepatitis delta Virus Genome”.

The target in series [1] is T1, His-ASF/SF2 (UniProt Q07955 1-248). The experiment in a line: intrinsic tryptophan fluorescence quenching; apparent KD; 100 mM KCl, 20 mM Tris-HCl pH 7.5, room temperature, 100 nM His-ASF/SF2, excitation 280 nm, emission 340 nm. The following applies: protein: recombinant, tags: C-terminal His6.
The target in series [2] is T1, His-ASF/SF2. The experiment in a line: intrinsic tryptophan fluorescence quenching; no appKD could be calculated; 100 mM KCl, 20 mM Tris-HCl pH 7.5, room temperature, 100 nM His-ASF/SF2, excitation 280 nm, emission 340 nm. As to conditions: protein: recombinant; tags: C-terminal His6; hairpin.
Series [3] has as its target T1, His-ASF/SF2. As to the kind of experiment: intrinsic tryptophan fluorescence quenching; no appKD; loss of binding stated; 100 mM KCl, 20 mM Tris-HCl pH 7.5, room temperature, 100 nM His-ASF/SF2, excitation 280 nm, emission 340 nm. As to conditions: protein: recombinant; tags: C-terminal His6; hairpin.

T1 sequence (Q07955 whole entry): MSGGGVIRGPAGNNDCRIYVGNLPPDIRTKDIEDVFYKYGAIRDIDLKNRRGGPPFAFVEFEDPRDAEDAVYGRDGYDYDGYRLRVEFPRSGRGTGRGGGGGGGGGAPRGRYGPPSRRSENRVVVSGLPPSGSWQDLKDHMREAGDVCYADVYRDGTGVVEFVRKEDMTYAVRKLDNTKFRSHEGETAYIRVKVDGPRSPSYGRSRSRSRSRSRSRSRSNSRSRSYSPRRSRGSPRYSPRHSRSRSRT

B1: R161G (structured_RNA)
RNA: UCUCUCCCUCCGCGGUUCUUCCUCGACUCGGCCCGGCUCAUCUCGGCUAGAGGCGGCAGUCCUCAGUACUCUUACUCUUUUCUGUAAAGAGGAGACUGCUGGACUCGCCGCCCGAGGCCGAGCCUGAGCCAAGUGCCGAGCGAGGAGACGCGGGGGGAGGA
With B1, the Kd in series [1] (hairpin) is roughly 900 nM.

B2: R177G (structured_RNA)
RNA: GGAUCUCUUCUCUCCCUCCGCGGUUCUUCCUCGACUCGGCCCGGCUCAUCUCGGCUAGAGGCGGCAGUCCUCAGUACUCUUACUCUUUUCUGUAAAGAGGAGACUGCUGGACUCGCCGCCCGAGGCCGAGCCUGAGCCAAGUGCCGAGCGAGGAGACGCGGGGGGAGGAUCAGCACC
Regarding B2, in series [1] (hairpin), the Kd is roughly 870 nM.

B3: R156G (structured_RNA)
RNA: CUCCCUCCGCGGUUCUUCCUCGACUCGGCCCGGCUCAUCUCGGCUAGAGGCGGCAGUCCUCAGUACUCUUACUCUUUUCUGUAAAGAGGAGACUGCUGGACUCGCCGCCCGAGGCCGAGCCUGAGCCAAGUGCCGAGCGAGGAGACGCGGGGGGAG
With B3, the binding result in series [2] is “no binding”.

B4: R199G (structured_RNA)
RNA: GGGACUGCUCGAGGAUCUCUUCUCUCCCUCCGCGGUUCUUCCUCGACUCGGCCCGGCUCAUCUCGGCUAGAGGCGGCAGUCCUCAGUACUCUUACUCUUUUCUGUAAAGAGGAGACUGCUGGACUCGCCGCCCGAGGCCGAGCCUGAGCCAAGUGCCGAGCGAGGAGACGCGGGGGGAGGAUCAGCACCCGAGAGGGGAUGU
For B4, the Kd in series [1] (rod-like hairpin) is roughly 640 nM.
With AGUCCUCAGUACUCUUACUCUUUUCUGUAAAGAGGAGACUGCUGGACU (structured_RNA) [R47G], in series [2], the binding result is on record as “no binding”.

B5: R177GΔASF (structured_RNA)
RNA: GGAUCUCUUCCGCGGUUCUUCCUCGACUCGGCCCGGCUCAUCUCGGCUAGAGGCGGCAGUCCUCAGUACUCUUACUCUUUUCUGUAAAGAGGAGACUGCUGGACUCGCCGCCCGAGGCCGAGCCUGAGCCAAGUGCCGAGCGAGGAGACGCGGGUCAGCACC
Regarding B5, in series [3], the binding result was “no binding”.
